For test [1], the target named is T1, human DNAM-1 (human, UniProt Q15762 19-336).
T1 construct: whole, on cells; also called hDNAM-1; CD226
T1 sequence (looked up): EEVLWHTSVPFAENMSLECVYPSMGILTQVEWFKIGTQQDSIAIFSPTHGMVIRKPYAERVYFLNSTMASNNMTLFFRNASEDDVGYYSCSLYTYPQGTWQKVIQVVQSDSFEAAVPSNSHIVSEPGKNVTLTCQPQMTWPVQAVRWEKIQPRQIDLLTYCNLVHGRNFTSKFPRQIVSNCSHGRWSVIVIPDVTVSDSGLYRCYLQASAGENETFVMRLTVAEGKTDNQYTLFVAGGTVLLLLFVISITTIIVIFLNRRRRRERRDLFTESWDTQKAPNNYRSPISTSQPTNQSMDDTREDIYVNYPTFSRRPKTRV
Nature of the test: flow cytometry on BW5147 cells stably expressing human DNAM-1 (hDNAM-1/BW). (Flow cytometry measures light scatter and fluorescence of single cells or particles in a stream.)

Test [2] concerns the target T1, human DNAM-1. Nature of the test: flow cytometry on hDNAM-1/BW cells, antibody purified from CHO-K1. As for the experimental part:
Binding to human DNAM-1 was examined by flow cytometry using a mouse lymphoblast BW5147 cell line (hereinafter, may be referred to as “BW”) and BW5147 stably expressing human hDNAM-1 (hereinafter, may be referred to as “hDNAM-1/BW”). Test antibodies at various concentrations were incubated with about […] hDNAM-1/BW cells at 4° C. for 1 hour in PBS (FACS buffer) containing 0.5% BSA and 0.05% NaN3. Thereafter, the cells were washed with ice-cooled FACS Buffer, and incubated at 4° C. for 30 minutes using a PE-labeled goat anti-human IgG antibody (manufactured by SouthernBiotech). After washing with FACS buffer, the stained cells were analyzed using a FACScan flow cytometer (manufactured by BD Biosciences).

For orientation: EC50 means the concentration that produces a half-maximal response. A low value points to an effect from little substance.

B1: anti-human DNAM-1 monoclonal antibody mAKB1 (antibody, V domains shown)
VH: DVQLQESGPGLVKPSQSLSLTCSVTGYSITSGYYWNWIRQFPGNKLEWMGYISYDGSNNYNPSLKNRISITRDTSKNQFFLKLNSVTTEDTATYYCARAYYGNYVGYFDVWGAGTTVTVSS
VL: SIVMTQTPKFLLVSAGDRVTITCKASQSVSNDVAWYQQKPGQSPKLLIYYASNRYTGVPDRFTGSGYGTDFTFTISTVQAEDLAVYFCQQDYSSPLTFGAGTKLELKR
notes: also called clone mAKB1
B1 came in with an EC50 with human DNAM-1 [1] of 6 µg/mL.

B2: humanized anti-DNAM-1 antibody hAKB1-B (antibody, human IgG1, kappa, L234A L235A, V domains shown)
VH: QVQLQESGPGLVKPSETLSLTCTVSGYSISSGYYWNWIRQPPGKGLEWMGYISYDGSNNYNPSLKNRVTISRDTSKNQFSLKLSSVTAADTAVYYCARAYYGNYVGYFDVWGQGTTVTVSS
VL: DIQMTQSPSSLSASVGDRVTITCKASQSVSNDVAWYQQKPGKAPKLLIYYASNRYTGVPSRFSGSGYGTDFTFTISSLQPEDIATYYCQQDYSSPLTFGGGTKVEIKR
notes: Full chains without signal peptide; also called phAKB1-B (expression vector); hAKB1-VH2 + hAKB1-VL1
B2 came in with an EC50 in the test with human DNAM-1 [2] of 5 µg/mL.

B3: humanized anti-DNAM-1 antibody hAKB1-A (antibody, human IgG1, kappa, L234A L235A, V domains shown)
VH: QVQLQESGPGLVKPSETLSLTCTVSGYSITSGYYWNWIRQPPGKGLEWMGYISYDGSNNYNPSLKNRVTISRDTSKNQFSLKLSSVTAADTAVYYCARAYYGNYVGYFDVWGQGTTVTVSS
VL: DIQMTQSPSSLSASVGDRVTITCKASQSVSNDVAWYQQKPGKAPKLLIYYASNRYTGVPSRFSGSGYGTDFTFTISSLQPEDIATYYCQQDYSSPLTFGGGTKVEIKR
notes: Full chains without signal peptide; also called phAKB1-A (expression vector); hAKB1-VH1 + hAKB1-VL1
Consider B3, for which the EC50 in the test with human DNAM-1 [2] is 5 µg/mL.

For the origin of these results see patent publication US20250051442A1 (UNIVERSITY OF TSUKUBA, published 2025).
